T1: human interleukin 1 receptor accessory protein, membrane-bound form on cells (human, UniProt Q9NPH3 21-570)
T1 sequence: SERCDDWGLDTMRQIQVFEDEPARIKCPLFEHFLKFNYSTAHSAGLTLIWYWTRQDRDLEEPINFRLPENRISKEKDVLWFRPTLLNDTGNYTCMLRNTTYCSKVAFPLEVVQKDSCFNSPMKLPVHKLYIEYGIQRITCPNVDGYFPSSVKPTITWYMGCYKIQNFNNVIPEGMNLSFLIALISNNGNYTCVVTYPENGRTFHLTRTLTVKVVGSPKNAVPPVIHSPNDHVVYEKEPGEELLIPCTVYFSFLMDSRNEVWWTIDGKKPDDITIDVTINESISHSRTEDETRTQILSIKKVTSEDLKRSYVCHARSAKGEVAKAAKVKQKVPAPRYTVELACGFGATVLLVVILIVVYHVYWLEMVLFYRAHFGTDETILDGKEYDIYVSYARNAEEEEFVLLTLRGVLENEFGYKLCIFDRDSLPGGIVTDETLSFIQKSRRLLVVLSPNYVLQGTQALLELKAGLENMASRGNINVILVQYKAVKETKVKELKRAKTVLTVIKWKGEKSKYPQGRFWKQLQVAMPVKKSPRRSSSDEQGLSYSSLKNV

T2: recombinant mouse IL1-RAP (mouse, UniProt Q61730 21-359, limits assumed)
T2 sequence (looked up): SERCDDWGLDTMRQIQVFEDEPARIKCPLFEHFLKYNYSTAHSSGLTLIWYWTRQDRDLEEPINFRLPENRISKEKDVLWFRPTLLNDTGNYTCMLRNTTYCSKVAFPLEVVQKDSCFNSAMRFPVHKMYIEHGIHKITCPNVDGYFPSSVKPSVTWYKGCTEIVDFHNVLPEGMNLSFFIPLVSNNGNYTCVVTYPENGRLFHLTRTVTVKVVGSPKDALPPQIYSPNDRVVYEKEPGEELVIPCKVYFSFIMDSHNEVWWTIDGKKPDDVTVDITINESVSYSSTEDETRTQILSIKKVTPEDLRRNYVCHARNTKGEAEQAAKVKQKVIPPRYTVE

B1: anti-IL1-RAP antibody clone 54.9E9 (antibody, V domains shown)
VH: QIQLVQSGPELKKPGETVKISCKASSYTFTDYSMHWVKQAPGKGLKWMGWINTETGEPRYADDFKGRFAFSLETSASTAYLQINNLKNEDTATYFCARFLLHFDYWGQGTILTVSS
VL: QIVLTQSPAIMSASPGEKVTMTCSASSSVSYMHWYQQKTGTSPKRLIYDTSKLASGVPARFSGSGSGTSYSLTISSMEAEDAATYYCHQRSYYPLTFGAGAKLELK
notes: Mouse monoclonal antibody
B2: anti-IL1-RAP antibody clone 46.1D2 (antibody, V domains shown)
VH: QVQLQQSGPELVKPGASVKISCKASGYGFSSSWMNWVKQRPGKGLEWIGRIYPGDGNTNYYGEFKGKATLTADKSSSTAYMQLNSLTSEDSAVYFCARNDGYPAWFTYWGQGTLVTVSA
VL: DIQMTQTTSSLSASLGDRVTISCSASQGISNYLNWYQQKPDGSVKLLIYYTSTLHSGVPSRFSGSGSGTDYSLTISNLEPEDIATYYCQQYSYLPWTFGGGTKLEIK
notes: Mouse monoclonal antibody
B3: anti-IL1-RAP antibody clone 50.6C12 (antibody, V domains shown)
VH: EVQLQQSGPELVKPGDSVKMSCKASGYTFTDYYMDWVKQSHGKSLEWIGYIYPHNGGTTYNQKFKGKATLTVDKSSSTAYMELHSLTSEDSAVYYCARSPFNYKDPMDWWGQGTSVTVSS
VL: DIQMTQSPASLSASVGETVTITCRASGNIHNYLAWYQQKQGKSPHLLVYNAETLADGVPSRFSGSGSGTQYSLKINSLQPEDFGTYYCQHFWSTPWTFGGGTKLEIK
notes: Mouse monoclonal antibody
B4: anti-IL1-RAP antibody clone 54.15B5 (antibody, V domains shown)
VH: KWSWWSLGGGLAKPGGSLKLSCTASGFTFTSYVMSWVRQSPEKRLEWVAEISRGGSHTYYSDTVTGRFTISRDNANNALYLEMSSVRSADTAMYFCTRAYGNSEMDFWGQGTSVTVSS
VL: QIVLTQSPAIMSASPGEKVTMTCSASSSISYIHWYRQKPGTSPKRWIYDTSNLASGVPARFSGSGSGTSYSLTIINMEAEDAATYYCHQRTYYPLTFGGGTRLELK
notes: Mouse monoclonal antibody
B5: anti-IL1-RAP antibody clone 50.3G7 (antibody, V domains shown)
VH: QIQLVQSGPELKKPGETVKISCKASGYTFTNYGMHWVKQSPGEGLKWMGWINTYTGEPTYADDFKGRFGFSLETSASSAYLQINDLKNEDMATYFCARYYGNFDYWGQGTTLTVSS
VL: DIVLTQSPATLSVTPGDSVSLSCRASQSISNNLHWYQQKSHESPRLLIKYASQSISGIPSRFSGSGSGTDFTLSINSVETEDFGVYFCQQSHNWPHTFGGGTKLEIKR
notes: Mouse monoclonal antibody
B6: 46.8G1 (antibody, V domains shown)
VH: QVQLQQSGPELVKPGASVKISCTASGYAFSTSWMNWVKQRPGKGLEWIGRIYPGDGDSNYNGKFKGKATLTADKSSSTAYMQLSSLTSEDSAVYFCARRDYYGFFDVWGAGTTVTVSS
VL: DIQMTQSPASLSVSVGETVTITCRASENIYSNLVWYQQKQGKSPQLLVYAATNLADGVPSRFSGSGSDTQYSLKINSLQSEDFGSYYCLHFWGPPYMYTFGGGTNLEMKR
notes: also called anti-IL1-RAP antibody clone 46.8G1
B7: 42.3G6 (antibody, V domains shown)
VH: QIQLVQSGPELKKPGETVKISCKASGYTFTDYSMHWVKQAPEKGLKWMGWINTETGEPTYADDFKGRFAFSLETSASTAYLQINNLKNEDTATYFCARGSFPWFTYWGQGTLVTVSA
VL: DIVMTQAAFSNPVTLGTSASISCRSSKSLLHSNGITYLYWYLQKPGQSPQLLIYQMSNLASGVPDRFSSSGSGTDFTLRISRVEAEDVGVYYCAQNLELPFTFGSGTKLEIK
notes: also called anti-IL1-RAP antibody clone 42.3G6

molecular target: T1, human interleukin 1 receptor accessory …; test: cell-based or functional assay

% Inhibition at 10 ug/mL of IL-1β-induced NF-κB signaling, HEK-Blue IL-1β cells [%]	IC50 of inhibition of IL-1β-induced NF-κB signaling, HEK-Blue IL-1β cells [µg/mL]	Binder
69.1	1.3	B1
69.2	0.13	B2
69	0.41	B3
58.1	0.29	B4
48	12.6	B5

molecular target: T2, recombinant mouse IL1-RAP; test: FACS (GeoMean), bar series mIL1RAP

binding result	Binder
no binding (tested: not given)	B1
no binding (tested: not given)	B2
no binding (tested: not given)	B3
no binding (tested: not given)	B6
no binding (tested: not given)	B7
no binding (tested: not given)	B4
no binding (tested: not given)	B5
